Measured values published in a protein production outcome set (Wang et al. 2014).

Test: label from the status in PepcDB records

With “MALDEAPAEARPGSRAVELEIDGRSRIFDIDDPDLPKWIDEEAFRSDDYPYKKKLDREEYEETLTKLQIELVKVQFWMQATGKRVMAVFEGRDAAGKGGAIHATTANMNPRSARVVALTKPTETERGQWYFQRYVATFPTAGEFVLFDRSWYNRAGVEPVMGFCTPDQYEQFLKEAPRFEEMIANEGIHLFKFWINIGREMQLKRFHDRRHDPLKIWKLSPMDIAALSKWDDYTGKRDRMLKETHTEHGPWAVIRGNDKRRSRINVIRHMLTKLDYDGKDEAAIGEVDEKILGSGPGFLR” as the sequence, how does the protein production read?
The protein production was “not failed”.

With “MALDSSGKQPEQQQQQQPRASSGNGEARLKLRRTPNEEHEPENYEDLPLDYSPSLFTSLERYLPEQLLNSTRIDKASFMRDLLLRYSPDTERVRVLRHKEYRDKIMSSYQRLHGEIYTLDPSSFFAPSFLGAFSRKSEPNFRSSMVESYPGIFTFEMFKPQFCEMLLAEVEHMEKWVYDSRSTIMRPNTMNNFGVVLDDFGFDSMLQKLVDDFISPIAQVLFPEVCGTSLDSHHGYIVEYGKDRDVDLGFHVDDSEVSLNVCLGKQFSGGELYFRGVRCDKHVNSDSTEKEVYDYSHVPGHAILHRGRHRHGARATTSGHRANLILWCRSSTFREMKNYQRDFSGWCGGCKLDKQRRQRDSINATKEILARKAAEKTLVELASKSCAE” as the sequence, how does the protein production read?
Its protein production is “failed”.

For “MALEPAEIFEKVSPSVWEVRVIGPDGKGLSMGSAVVIGDGVVITNCHVLRGGKQVWLKRGNANFGARLQYPDVERDLCQLRVADFHYPPVTLAPGSALVTGQKVYAIGNPLGLELTISEGLISSLRTDDDGRLKSVQTSAAISRGSSGGGLFDANGRLIGITDHQVVLTLGQNLNFAIPADWIADVPARAQKALAARAAAASAVVASTPAPQSAAPTPAPAPAPRHQGELGPNQQTGFSVYLQKTWPKAFVAADGDHYYYWTGKNAELYALSACQERWQNCSVYARNNTVVEPVEGTGERPGAAR”, which protein production is on record?
Its protein production is “failed”.

Which protein production does the source give for “MALGLLPLVLLTLSIFIYLVSKMSWKMGALLNFLAGLFTILYVFTLKVGTFEKLDLFGLNIQFEWTNVSFYFSFVSLLVIVSVMLFSTKWLETQKYRASYNMFLLMVTAGSLGVFMAADLITLYVFWEIAVLSSLLIVPMEKKEARKAVVVYAVMSAVGTYAFLYGTFLAYQRYGTLNIHGIAQGMLNDTSIGFKMAVFLLLSAAGIAKSGIFPLHIWLRETHGLAPNAFSSVLSGQFIKLGNYIFLLVLSVIPSLKVFSEVTVYSGIPLPNYILIALGNVSIVIGTLMAIKQDDMKMLMAYSSVANGGYILIGIGTMDPLGFEGGMFHIFNHAVASAVIFMAFAAVIYRTKTQKISEMGGLIHKMPVTFLVYLFSIISLAGIPPMSGFISKWMIYQALVRKGMFITAFLAFFGSIGSFLYVFRPLAGVFLGQLPRKYRDVKEAPAVMLTPMVLLVLISFFLGVWPFPILQAIEKIRVDLDVAPSFKISDPENWLVKGFAGSWNPVLVFGLFLVGFIVAYILYSLFPRPKKVDLLAPHREEGTPINIYTGGEFIYNPDLYHYNTKFYAGFERMYEKHPSWEKLLKMFGKLFHDAGEWIHSWFFEPSSSAYTFWVVVTLLLVFWVRW” here?
The protein production was “failed”.

Which protein production does the source give for “MALKATIYKADLNIANMDSHHYADYQLTLALHPSETIERLMVRILAFARFADENLQFTKDLFETDEPALWQKDLTGQLEQWIELGQPSEDKLKKASARCKHVVVVTYGQQVDEWWKRNNKVKTLSNVEVWQLAPETTSQLEKLCERTMQLQLNVMDGEWTLLNDHEQVDVSWTKLH” here?
Its protein production is “failed”.

With “MALLKSPIFGICFSLILYTIGQDLFKKSKGFFLLQPLFFAMVAGIIVLVLLAKGLGTDVKTLYTQAYKPGGDLIFWFLNPATIAFAVPLYKKNDAVKKYWKEIISSLIIGMVVSLIIIVAISKAIGLSQASTASMLPQAATTAIALPIAHAIGGNTAITAMACILNAVIIYALGKKLVALFHLNKSEIGVGLGLGTSGHTVGAAFALELGELQGAMAAIAVVVIGLVVDLVIPIFSYMIGLVH” as the sequence, how does the protein production read?
The protein production was “failed”.

With “MALLLAALLVLLTALLAVRLPAWASALLLGLLAGSGYALGVRSEALPAGALLLLGALAAPRLYLGPRRRKRPERRPPGPKRPAAAGTTAEREALSQRYEILEKVGLGGMATVYKAKDRKTGRLVALKVPQERFLGDPRFVRRFHREAEVLTRMDHPNIVKVYDHGQVEGVHYIAMEFLDGEGLDKLIEERRLSLRQAAAILARVADALKHIHAQGIVHRDIKPGNIMVLKGALREDGVDPRGVRLMDFGIAAGRVLTRLTITGARIGTPVYMSPEQAKGQKLDHRSDIYSLGIVLYEALTGQPPFTGGYETVIHQQIFQMPTPPKQLRPEIPQALSDLVLRMLEKDPAKRPGLDEVVRVLEGPWEEERELPEAQYLLVAVEAKKGAVRLLDLEGTPARLLSGVGSGAGQFPSPPLAVAADPEGGIWVAVFQHGERLVHRLSPQGEVLLSTGPYGMKPGEFLLPVGLAVLEDQVFVLDGETATVSRLDLAGRYQGRFGGQGLGRGTFQDPKALVAAEGHLFVLDYGNRQVQRLTPEGGYLSRYAFRRSREDGALRLLGGVGVGEGRLYLYDVEAVKVRVLDLSGRLLASYPLPLLEGEDRMSLVELLPVGRVLYAARRGSSRIHRISLDTGEALPPLEVYAPVRGLALWRRTP” as the sequence, how does the protein production read?
The protein production was “failed”.

For “MALMTNKTRALLIGGHGKVALLATPMLIDASVQVTSMYRNPDHRSEIEALGATTLERDVTTLSVEDWADLLKDFDVVVWSAGNGGKNGADATYAIDRDAAIASIDGAASLGEKAPRYIMVSYIGSSTHTIDPSASFYPYAESKKAADEHLSSTNLDYLILAPAALTLDEVNGVEVIADTNEAAAGRTTSRVLVAEVITEFVVRDFPQTRVLPFVDGESPLEHHHHHH”, which protein production is on record?
The protein production was “not failed”.

With “MALNLKQRLEQKFEEEIRFFKGMVSQPKKVGAIVPTSSITAKKMASVINPHSGLPVLELGPGTGVITKAILARGIKPESLTAIEYSTDFYNQLLRSYPGVNFVNGDAFDLDATLGEHKGQMFDSVISAVPMLNFPMAARIKLLDELLKRVPHGRPVVQISYGPISPIVAQPHLYHIRHFDFIVRNIPPAQLWTYTRALEHHHHHH” as the sequence, how does the protein production read?
Its protein production is “failed”.

With “MALPHVVSSPSSTSLSPSFKSKPPFHSLRSLSPTVDNRRRCKLNSSFRCSSSSFSEKHHNAKSPKSDDIVELPLFPLPLVLFPGAILPLQIFEFRYRIMMHTLLQSDLRFGVVYSDSVSGSAAEVGCVGEVVKHERLVDDRFFLVCKGQERFRVTNVVRTKPYLVGEVTWLEDRPSGEENLDSLANEVEVLMKEVIRLSNRLNGKAEKEVQDLRRNQFPTPFSFFVGSTFEGAPREQQALLELEDTAARLKRERETLRNTLNYLTAASAVKDVFPSSS” as the sequence, how does the protein production read?
The protein production was “failed”.

Which protein production does the source give for “MALQSSVRAFKKPPRPLVDEVRFLRSWIEKPLHMGAVMPSGKLLARTMARYVDIQSDGPVIELGPGTGAITNALVEHGVDQKRLVLLEFDPGFCALLRERFPLAKVVQGDAYRLRDSLWDALEIPATAVVSGLPLVTKPMLTRMKLIRDAFTLLEPGAPFVQFTYSVAPPIPKSLPGVSTEGSERIWMNVPPARVWVYRKRLEHHHHHH” here?
Its protein production is “failed”.

With “MALRSLVLFAALALVGCSSSPTADLVLTNGTVATLDDDHEQVEALAAADDTLLAVGSADAIDAYVGGDTRVIDLQGRLAVPGFIEGHGHYMGMGQAQMQLDLLGTSSWGRVVAKVDSSADETASGAWVEGRGWHQEKWTSTPERMVRGFPTNARLNEAAPDTPVYLTHASGHAAIANDAALEAAGIGPNTPDPEGGTIVRDAQERVTGVLLETAAGLVQEALDASRSGMSAADRRARRERQVRLAAEEALANGVTSFQDQGASFETIRLYREMAERGALDIRMYAMVAQGEVTPETQERLAEIRTVGAADQHLTVRAIGEVTVDGALGSRSAWMLEPYDDAPNDTGINVTPMERVREIAEIGLDEDYQIAVHAIGDRANRETLDLYASLFEAADGRGAERRWRVEHAQHLHPDDISRFADLGVMASMQAIHACSDAPYNYQRLGAQRVDQGAYLWNTLWADGAVVGNGTDVPVEKIDPLASLHCTATRQVPGTDTTFTPDETLTRRRALQSYTINNARMAFEEDVKGTLTPGKLADVTVLSENILTGPPERLREATVDYTIVGGEVAYANE” as the sequence, how does the protein production read?
The protein production was “failed”.

Which protein production does the source give for “MALSADIVGMHYRYPDHYEVEREKIREYAVAVQNDDAWYFEEDGAAELGYKGLLAPLTFICVFGYKAQAAFFKHANIATAEAQIVQVDQVLKFEKPIVAGDKLYCDVYVDSVREAHGTQIIVTKNIVTNEEGDLVQETYTTLAGRAGLEHHHHHH” here?
Its protein production is “not failed”.

With “MALTEAWLIEKANRKLNAGGMYKITSDKTRNVIKKMAKEGIYLCVAQGYRSTAEQNALYAQGRTKPGAIVTNAKGGQSNHNYGVAVDLCLYTNDGKDVIWESTTSRWKKVVAAMKAEGFKWGGDWKSFKDYPHFELCDAVSGEKIPAATQNTNTNSNRYEGKVIDSAPLLPKMDFKSSPFRMYKVGTEFLVYDHNQYWYKTYINDKLYYMYKSFCDVVAKKDAKGRIKVRIKSAKDLRIPVWNNTKLNSGKIKWYAPNTKLAWYNNGKGYLELWYPSDGWYYTANYFLK” as the sequence, how does the protein production read?
The protein production was “failed”.

With “MAMNLRKNQAPLYIKVHEIDNTAIIVNDGGLPKGTVFSCGLVLEEDVPQGHKVALTDLNQGDEIVRYGEVIGFADETIKRGSWIREALVRMPAP” as the sequence, how does the protein production read?
The protein production was “failed”.

For “MAMPEIDALLGLSFCLYFFDNKQHKLPHIHVKYGSYELIIAIETGECLEGYLPNKQRKRAENHILEHREQLMVMWNKAVNGENPGKLGDLCLEHHHHHH”, which protein production is on record?
The protein production was “failed”.

For “MANENVAFENKRQVYHYEPPIQKEEAIPKQYFAGFWIRFLAYLVDLVVIAALKGIIINPIFRVSGMGMDDSFFTFYWGMTTIIFLAYFILLTKFFGQTLGKMLFGLRVVKLDGGKLTWLTVLFREGAMRFVLKTIWPLYVVCAFTPNKQGIADFFESTSVVHTGYLELDEKWVNGAKK”, which protein production is on record?
The protein production was “failed”.

For “MANIVFIATSLDGYIADKRGKLDWLHSVPNPNNVDTGFVALMERVDGLVMGRNTLDMVLSFDCDWPYSKPVFVLSNTMTEVPQGYEDKVFLVKGKLVDIIADLNAKGFNELYIDGGVTIQNFLKEDLIDEMVITRFPILLGGGVPLFGELESSLSFNVIKSEVVLDSLTQTTYHRKRA”, which protein production is on record?
Its protein production is “not failed”.

Which protein production does the source give for “MANKKGRRRSFGSCRQLASGRWQVRYRDPQTGLLRPAEKTYETKTDAQVALTHIEADITRGQWADPDAGDVNFADYATAWLRDRKLADRTRERNESVMRLHVVPVFGAGSIADVTTARVRSWRGKLLAAGVGEPTVVKAYQLLRALMNTAVDDELIRRNPCRIKGADSYDVPERPVLSVAEVFGVAYAIAPRYRLLVLLAAFTTLRFGELAALRRKDIDLNGRLVVVRRAQAELQNGRLFDKAPKSAAGLRTVSFPAELVDEISHHLKHYAADGQEGHLFVGPQGGQLRRSNFRDDWIKARKAAGVSPKLHFHDLRHTGNTLASTAGASTRELMTRMGHSSSRAALIYQHMTSDRDRTIADRLGAMIRNGEGDLTAAGD” here?
Its protein production is “failed”.

Which protein production does the source give for “MANKNPLQKPFLFIILSINLIFLQAETTTQISTKKTYVIHMDKSAMPLPYTNHLQWYSSKINSVTQHKSQEEEGNNNRILYTYQTAFHGLAAQLTQEEAERLEEEDGVVAVIPETRYELHTTRSPTFLGLERQESERVWAERVTDHDVVVGVLDTGIWPESESFNDTGMSPVPATWRGACETGKRFLKRNCNRKIVGARVFYRGYEAATGKIDEELEYKSPRDRDGHGTHTAATVAGSPVKGANLFGFAYGTARGMAQKARVAAYKVCWVGGCFSSDILSAVDQAVADGVQVLSISLGGGVSTYSRDSLSIATFGAMEMGVFVSCSAGNGGPDPISLTNVSPWITTVGASTMDRDFPATVKIGTMRTFKGVSLYKGRTVLPKNKQYPLVYLGRNASSPDPTSFCLDGALDRRHVAGKIVICDRGVTPRVQKGQVVKRAGGIGMVLTNTATNGEELVADSHMLPAVAVGEKEGKLIKQYAMTSKKATASLEILGTRIGIKPSPVVAAFSSRGPNFLSLEILKPDLLAPGVNILAAWTGDMAPSSLSSDPRRVKFNILSGTSMSCPHVSGVAALIKSRHPDWSPAAIKSALMTTAYVHDNMFKPLTDASGAAPSSPYDHGAGHIDPLRATDPGLVYDIGPQEYFEFLCTQDLSPSQLKVFTKHSNRTCKHTLAKNPGNLNYPAISALFPENTHVKAMTLRRTVTNVGPHISSYKVSVSPFKGASVTVQPKTLNFTSKHQKLSYTVTFRTRFRMKRPEFGGLVWKSTTHKVRSPVIITWLPPL” here?
Its protein production is “failed”.
